Where “and” joins values, the source holds several entries; their conditions need not be identical. Identical values can stand only once. Where no end group is shown, it is not given here.
Columns and labels:
[1] = target: bovine PACAP receptor protein from bovine cerebrum (bovine) (UniProt Q29627); experiment: radioligand
[2] = target: bovine PACAP receptor protein from bovine cerebrum (bovine) (UniProt Q29627); experiment: saturation binding experiment; fraction: Solubilized product
[3] = target: T1, rat PACAP receptor protein Type I-A (pRPR3-A, derived from pRPACAPR46-5), expressed in CHO or Sf9 cells (rat, UniProt P32215 20-523); experiment: 100 pM [125I]-PACAP27 on whole CHO cells, gamma counting (FIG. 39)
T1 construct: also called pRPR3-A-introduced CHO cells; clone A12
T1 sequence: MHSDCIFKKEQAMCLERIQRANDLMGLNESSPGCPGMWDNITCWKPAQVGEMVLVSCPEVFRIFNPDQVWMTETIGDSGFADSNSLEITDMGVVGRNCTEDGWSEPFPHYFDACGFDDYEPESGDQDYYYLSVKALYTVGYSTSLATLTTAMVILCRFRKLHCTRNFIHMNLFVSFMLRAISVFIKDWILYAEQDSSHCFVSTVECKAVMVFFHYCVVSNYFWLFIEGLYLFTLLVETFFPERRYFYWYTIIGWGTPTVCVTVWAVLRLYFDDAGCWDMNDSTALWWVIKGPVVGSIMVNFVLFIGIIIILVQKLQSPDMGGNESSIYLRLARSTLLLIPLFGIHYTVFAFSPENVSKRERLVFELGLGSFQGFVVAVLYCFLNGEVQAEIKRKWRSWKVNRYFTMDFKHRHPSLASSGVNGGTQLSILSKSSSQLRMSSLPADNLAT
Protocol: (§2) The cells were incubated until they covered the bottom surface of the tissue culture plates completely. […] The cells were washed twice with a buffer for the binding experiment [Hank's solution (pH 7.4) containing 5 mM HEPES, 5% CRAPS and 0.1% BSA]. […] After incubation at 37° C. for 1 hour, the cells washed three times with the buffer for the binding experiment were dissolved with 1 ml of 0.5 N NaOH and 0.1% SDS for each well, and the radioactivity contained therein was measured with a γ-counter.

[4] = target: T2, rat PACAP receptor protein Type I-B (pRPR4-B, derived from pRPACAPR12), expressed in CHO or Sf9 cells (rat, UniProt P32215 20-523); experiment: as above
T2 construct: also called pRPR4-B-introduced CHO cells; clone B17
T2 sequence: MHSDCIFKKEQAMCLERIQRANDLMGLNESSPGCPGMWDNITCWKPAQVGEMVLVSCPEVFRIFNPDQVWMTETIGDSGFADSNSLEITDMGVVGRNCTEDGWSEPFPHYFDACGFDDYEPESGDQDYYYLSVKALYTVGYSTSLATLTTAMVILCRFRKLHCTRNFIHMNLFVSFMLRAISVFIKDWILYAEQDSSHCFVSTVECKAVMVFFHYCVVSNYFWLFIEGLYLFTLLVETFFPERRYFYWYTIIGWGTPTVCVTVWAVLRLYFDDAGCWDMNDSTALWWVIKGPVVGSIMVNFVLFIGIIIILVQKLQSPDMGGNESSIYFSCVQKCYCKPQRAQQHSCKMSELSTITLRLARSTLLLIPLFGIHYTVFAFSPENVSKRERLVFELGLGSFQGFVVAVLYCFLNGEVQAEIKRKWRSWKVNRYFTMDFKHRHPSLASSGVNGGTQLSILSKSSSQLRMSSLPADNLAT
Protocol: as §2

[5] = target: bovine PACAP receptor protein from bovine cerebrum (bovine) (UniProt Q29627); experiment: saturation binding experiment; fraction: Gel filtration (final purified sample)
[6] = target: T3, bovine PACAP receptor protein Type I-A encoded by pBPR-T, expressed in CHO cells (UniProt Q29627 38-513); experiment: radioligand
T3 chain: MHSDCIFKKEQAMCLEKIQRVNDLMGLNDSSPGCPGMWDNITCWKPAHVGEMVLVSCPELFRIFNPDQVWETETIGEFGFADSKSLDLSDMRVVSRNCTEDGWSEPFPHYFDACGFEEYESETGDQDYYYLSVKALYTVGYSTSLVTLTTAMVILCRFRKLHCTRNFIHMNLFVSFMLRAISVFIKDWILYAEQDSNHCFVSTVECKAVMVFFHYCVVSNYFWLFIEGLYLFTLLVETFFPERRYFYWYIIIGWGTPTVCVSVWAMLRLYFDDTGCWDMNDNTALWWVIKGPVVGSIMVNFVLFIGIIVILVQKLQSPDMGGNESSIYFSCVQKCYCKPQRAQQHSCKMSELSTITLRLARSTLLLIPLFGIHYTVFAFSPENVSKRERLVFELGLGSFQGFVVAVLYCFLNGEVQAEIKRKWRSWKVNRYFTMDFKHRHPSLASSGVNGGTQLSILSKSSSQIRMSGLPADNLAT

[7] = target: bovine PACAP receptor protein from bovine cerebrum (bovine) (UniProt Q29627); experiment: saturation binding experiment; fraction: Ion exchange
[8] = target: bovine PACAP receptor protein from bovine cerebrum (bovine) (UniProt Q29627); experiment: saturation binding experiment; fraction: Micro hydroxyapatite
[9] = target: bovine PACAP receptor protein from bovine cerebrum (bovine) (UniProt Q29627); experiment: saturation binding experiment; fraction: Avidin-agarose
[10] = target: bovine PACAP receptor protein from bovine cerebrum (bovine) (UniProt Q29627); experiment: saturation binding experiment; fraction: Membrane fraction
[11] = target: bovine PACAP receptor protein from bovine cerebrum (bovine) (UniProt Q29627); experiment: saturation binding experiment; fraction: Hydroxyapatite
[12] = target: T2, rat PACAP receptor protein Type I-B …; experiment: competition with 100 pM [125I]-PACAP27, membrane fraction of pRPR4-B-introduced CHO cells (FIG. 40B)
Protocol: (§1) The pRPR3-A-introduced and pRPR4-B-introduced CHO cells obtained in (2) described above were each disrupted in sodium carbonate buffer containing 1 mM EDTA, 0.5 mM PMSF, 20 μg/ml leupeptin, 4 μg/ml E-64 and 1 μg/ml pepstatin with a Polytron homogenizer (Kinematica) to prepare membrane fractions. Using the membrane fractions, complex binding experiments were conducted. […] The reaction was conducted at 25° C. for 1 hour, and bound ligands were separated from free ligands by filtration through a filter. […] The amount of bound ligands was measured with a γ-counter.

[13] = target: T1, rat PACAP receptor protein Type I-A …; experiment: competition with 100 pM [125I]-PACAP27, membrane fraction of pRPR3-A-introduced CHO cells (FIG. 40A)
Protocol: as §1

[^125I]-PACAP27
Kd [1]: 29 pM and 30 pM

B1: [^125I]-PACAP27 (peptide)
peptide: HSDGIFTDSYSRYRKQMAVKKYLAAVL-NH2
modifications: also: 125I label on one Tyr, which one not given here
notes: also called radioactive iodine-labelled PACAP27
Specific activity [2]: 1.9 pmol/mg
Total activity (maximum binding of [125I]PACAP27) [2]: 4560 pmol
binding result [3]: binds
binding result [4]: binds
Specific activity [5]: 16000 pmol/mg
Total activity (maximum binding of [125I]PACAP27) [5]: 671 pmol
Kd [6]: 103 pM
Specific activity [7]: 9.9 pmol/mg
Total activity (maximum binding of [125I]PACAP27) [7]: 4700 pmol
Total activity (maximum binding of [125I]PACAP27) [8]: 1720 pmol
Total activity (maximum binding of [125I]PACAP27) [9]: 2040 pmol
Specific activity [10]: 1.3 pmol/mg
Total activity (maximum binding of [125I]PACAP27) [10]: 8120 pmol
Specific activity [11]: 25 pmol/mg
Total activity (maximum binding of [125I]PACAP27) [11]: 3350 pmol

B2: PACAP27 (peptide)
peptide: HSDGIFTDSYSRYRKQMAVKKYLAAVL-NH2
notes: also called unlabeled PACAP27; cold PACAP27
binding result [12]: binds
binding result [13]: binds

Source: US20020155533A1 (Takeda / Millennium, published 2002)
